The test deals with β-crystallin (containing about 10% βA3 -crystallin). Kind of test: ELISA of mouse sera in the same manner as in Experimental Example 2; anti-crystallin antibody titer, control group. The following applies: scale: dilution ratio.

Turning to “sera of control mice given PBS (Experimental Example 5) (polyclonal serum or antibody)”, the antibody titer came out at 500.

For the origin of these results see US5871739.
